Here are results for one molecule from patent US11819553B2, “Glypican 3 antibodies and conjugates thereof” (Seagen Inc., priority 2018, dated 2023).

The assay concerns the target T1, hGPC3 (Homo sapiens, UniProt P51654).
T1 construct: endogenous in cells
Description: Competition binding assay on GPC3-positive cells (flow cytometry, AlexaFluor-488 labeled mGPC3-1). As to conditions: Table 6; competition with labeled mGPC3-1 on GPC3-positive cells; read-out: hGPC3 Binding of hGPC3-1 Antibody Variants EC50. The procedure:
One hundred thousand GPC3-positive cells were transferred to 96-well plates and incubated for 1 hour on ice with 3-5 nM AlexaFluor-488 labeled mGPC3-1 and increasing concentrations (from 10 pM to 2 uM) of unlabeled humanized or murine GPC3-1 mAb. Cells were centrifuged, washed 3 times with PBS, and resuspended in 125 μL of a PBS+2% FBS solution. Fluorescence was analyzed using a flow cytometer, and the percent of saturated fluorescent signal was used to determine percent labeled GPC3-1 mAb bound. The EC50 was extrapolated by fitting the data to a sigmoidal dose-response curve with variable slope.
For orientation: Flow cytometry measures light scatter and fluorescence of single cells or particles in a stream.

Where only a bound is given, the exact number is not on record here.

T1 sequence (P51654 25-554): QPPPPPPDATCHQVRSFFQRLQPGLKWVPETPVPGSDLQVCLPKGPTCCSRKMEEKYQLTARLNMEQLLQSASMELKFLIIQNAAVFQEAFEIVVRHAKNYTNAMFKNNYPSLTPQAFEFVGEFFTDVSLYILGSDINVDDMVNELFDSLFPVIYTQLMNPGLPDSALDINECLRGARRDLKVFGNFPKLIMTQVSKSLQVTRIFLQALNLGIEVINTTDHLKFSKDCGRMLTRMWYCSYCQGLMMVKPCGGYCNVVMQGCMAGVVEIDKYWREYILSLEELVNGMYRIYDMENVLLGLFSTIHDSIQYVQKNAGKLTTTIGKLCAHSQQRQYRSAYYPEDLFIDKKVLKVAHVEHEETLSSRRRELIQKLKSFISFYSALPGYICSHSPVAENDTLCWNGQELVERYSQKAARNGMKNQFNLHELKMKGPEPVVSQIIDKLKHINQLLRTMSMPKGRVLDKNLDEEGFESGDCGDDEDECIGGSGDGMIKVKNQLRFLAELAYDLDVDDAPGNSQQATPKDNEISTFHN

B1: hGPC3-1 HALA: humanized GPC3-1 antibody with heavy chain variable region vHA and light chain variable region vLA (antibody, V domains shown)
VH: QVQLVQSGAEVKKPGASVKVSCKASGYTFTDYEMHWVRQAPGQGLEWIGGIDPETGGTAYNQKFKGRATLTADTSTSTAYMELRSLRSDDTAVYYCARYYSFAYWGQGTLVTVSS
VL: DVVMTQSPLSLPVTLGQPASISCRSSQSIVHSNGNTYLQWFQQRPGQSPRRLIYKVSNRFSGVPDRFSGSGSGTDFTLKISRVEAEDVGVYYCFQVSHVPYTFGQGTKLEIK
With B1, the EC50 – broadly, the midpoint of the concentration-response curve – was above 300 nM.
